How the values were obtained:
Rhesus monkeys = assay: anticoagulatory effect following intravenous administration to Rhesus monkeys; format: in vivo
From the text: Amino acid analysis of the product conforms with the composition which is to be expected from the amino acid sequence. Edman sequence analysis indicates 2 N-terminal amino acid residues Leu(1) and Asn(37).

[1] = target: recombinantly obtained desulfato-Tyr63 hirudin (leech (Hirudo medicinalis), made recombinantly in yeast cells)

In the case of “(hirudin 1-63)-Thr(64)-Arg(65)-Arg(66)--OH [Example 3]”, the “anticoagulatory effect (activity compared with starting hirudin)” value (Rhesus monkeys; intravenous administration to Rhesus monkeys (1 mg/kg), test conditions per Jurgens 1952) is reported as “virtually identical to that of the starting hirudin”.

For “chymotrypsin (Merck, Darmstadt) (enzyme)”, the transpeptidation at Tyr63; composition of the crude product by analytical HPLC [1] was 65.2%.

B1: (hirudin 1-36)-Thr, (hirudin 37-65) (protein)
chain 1: LTYTDCTESGQNLCLCEGSNVCGQGNKCILGSDGEKT
chain 2: NQCVTGEGTPKPQSHNDGDFEEIPEEYLQ
B1 was tested, and the “anticoagulatory effect (activity compared with starting hirudin)” value (Rhesus monkeys; intravenous administration to Rhesus monkeys, dose not given) was “virtually identical to that of the starting hirudin”.

— patent publication US5674838A, “Hirudin derivatives and a process for their preparation” (Hoechst Aktiengesellschaft, priority 1994, dated 1997)
